# Test results taken from IntAct's records for PubMed 31515488.
# B1: Cyclin-dependent kinase 4 (Homo sapiens), P11802 (parent)
# chain: MATSRYEPVAEIGVGAYGTVYKARDPHSGHFVALKSVRVPNGGGGGGGLPISTVREVALLRRLEAFEHPNVVRLMDVCATSRTDREIKVTLVFEHVDQDLRTYLDKAPPPGLPAETIKDLMRQFLRGLDFLHANCIVHRDLKPENILVTSGGTVKLADFGLARIYSYQMALTPVVVTLWYRAPEVLLQSTYATPVDMWSVGCIFAEMFRRKPLFCGNSEADQLGKIFDLIGLPPEDDWPRDVSLPRGAFPPRGPRPVQSVVPEMEESGAQLLLEMLTFNPHKRISAFRALQHSYLHKDEGNPE
# Variants of: B1
# Conditions: with ccnd1_human CCND1, P24385
# ccnd1_human CCND1, P24385, sequence (P24385 whole entry): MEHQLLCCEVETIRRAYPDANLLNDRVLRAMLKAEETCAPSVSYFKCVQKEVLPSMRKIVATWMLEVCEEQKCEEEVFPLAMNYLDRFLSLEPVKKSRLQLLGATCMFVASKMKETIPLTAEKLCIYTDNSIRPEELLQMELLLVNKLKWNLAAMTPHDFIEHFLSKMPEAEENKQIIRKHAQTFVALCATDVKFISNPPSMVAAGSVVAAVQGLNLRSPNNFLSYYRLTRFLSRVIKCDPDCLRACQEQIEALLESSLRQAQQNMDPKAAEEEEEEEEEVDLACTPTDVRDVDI
row,effect of a mutation on the interaction,Variant
1,with no effect,R255H
2,with no effect,S52N
3,with no effect,R24H

# Variants of: B1
# Conditions: with ccnd3_human CCND3, P30281
# ccnd3_human CCND3, P30281, sequence (P30281 whole entry): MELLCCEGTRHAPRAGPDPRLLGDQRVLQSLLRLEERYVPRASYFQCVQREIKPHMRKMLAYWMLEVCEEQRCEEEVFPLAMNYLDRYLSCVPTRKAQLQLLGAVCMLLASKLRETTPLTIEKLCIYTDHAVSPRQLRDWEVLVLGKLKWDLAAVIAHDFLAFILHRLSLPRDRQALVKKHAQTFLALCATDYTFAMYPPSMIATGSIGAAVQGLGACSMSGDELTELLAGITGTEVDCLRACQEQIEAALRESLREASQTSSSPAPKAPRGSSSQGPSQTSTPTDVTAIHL
row,effect of a mutation on the interaction,Variant
1,with no effect,R255H
2,with no effect,R209C
3,with no effect,S52N

# Variants of: B1
# Conditions: with cdn2c_human CDKN2C
row,effect of a mutation on the interaction,Variant
1,with no effect,R255H
2,with no effect,R209C
3,with no effect,S52N

# Variants of: B1
# Conditions: with ccnd2_human CCND2, P30279
# ccnd2_human CCND2, P30279, sequence (P30279 whole entry): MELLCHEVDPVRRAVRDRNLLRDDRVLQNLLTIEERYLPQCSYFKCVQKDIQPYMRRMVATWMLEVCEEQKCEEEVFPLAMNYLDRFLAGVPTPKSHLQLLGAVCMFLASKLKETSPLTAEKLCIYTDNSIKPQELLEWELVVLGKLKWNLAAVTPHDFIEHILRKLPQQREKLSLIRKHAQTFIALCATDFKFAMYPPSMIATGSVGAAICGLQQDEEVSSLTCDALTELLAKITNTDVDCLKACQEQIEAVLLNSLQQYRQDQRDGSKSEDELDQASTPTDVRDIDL
row,effect of a mutation on the interaction,Variant
1,with no effect,R255H

# Variants of: B1
# Conditions: with ccnd1_human CCND1, P24385
# Remark: another data set of the same source
row,effect of a mutation on the interaction,Variant
1,with no effect,R255C
2,with no effect,K22R
3,with no effect,G43E
4,with no effect,S267P

# Variants of: B1
# Conditions: with ccnd2_human CCND2, P30279
# Remark: another data set of the same source
row,effect of a mutation on the interaction,Variant
1,with no effect,R255C
2,with no effect,K22R
3,with no effect,G43E
4,with no effect,S267P

# Variants of: B1
# Conditions: with cdn2c_human CDKN2C
# Remark: another data set of the same source
row,effect of a mutation on the interaction,Variant
1,with no effect,R255C
2,with no effect,K22R
3,with no effect,G43E
4,with no effect,S267P

# Variants of: B1
# Conditions: with ccnd3_human CCND3, P30281
# Remark: another data set of the same source
row,effect of a mutation on the interaction,Variant
1,with no effect,R255C
2,with no effect,K22R
3,with no effect,G43E
4,with no effect,S267P

# Variants of: B1
# Conditions: with cdn2b_human CDKN2B
row,effect of a mutation on the interaction,Variant
1,with no effect,R209C
2,with no effect,S52N
